Laboratory results published in patent publication US20240368668A1, “SUBSTRATES AND BIOMARKERS OF ADAMTS7” (The Broad Institute, Inc., priority 2021, published 2024).

Molecular target: T1, mouse ADAMTS7 (Mus musculus, UniProt Q68SA9, E373Q)
T1 construct: Full-length mouse Adamts7 1-1857 (Uniprot Q68SA9, WT or E373Q catalytic mutant); expressed in transfected cells; host or cells: Human Coronary Artery Smooth Muscle Cells (HCA-SMC, Lonza), adenovirus 50 MOI
T1 sequence (Q68SA9 221-1657 E373Q): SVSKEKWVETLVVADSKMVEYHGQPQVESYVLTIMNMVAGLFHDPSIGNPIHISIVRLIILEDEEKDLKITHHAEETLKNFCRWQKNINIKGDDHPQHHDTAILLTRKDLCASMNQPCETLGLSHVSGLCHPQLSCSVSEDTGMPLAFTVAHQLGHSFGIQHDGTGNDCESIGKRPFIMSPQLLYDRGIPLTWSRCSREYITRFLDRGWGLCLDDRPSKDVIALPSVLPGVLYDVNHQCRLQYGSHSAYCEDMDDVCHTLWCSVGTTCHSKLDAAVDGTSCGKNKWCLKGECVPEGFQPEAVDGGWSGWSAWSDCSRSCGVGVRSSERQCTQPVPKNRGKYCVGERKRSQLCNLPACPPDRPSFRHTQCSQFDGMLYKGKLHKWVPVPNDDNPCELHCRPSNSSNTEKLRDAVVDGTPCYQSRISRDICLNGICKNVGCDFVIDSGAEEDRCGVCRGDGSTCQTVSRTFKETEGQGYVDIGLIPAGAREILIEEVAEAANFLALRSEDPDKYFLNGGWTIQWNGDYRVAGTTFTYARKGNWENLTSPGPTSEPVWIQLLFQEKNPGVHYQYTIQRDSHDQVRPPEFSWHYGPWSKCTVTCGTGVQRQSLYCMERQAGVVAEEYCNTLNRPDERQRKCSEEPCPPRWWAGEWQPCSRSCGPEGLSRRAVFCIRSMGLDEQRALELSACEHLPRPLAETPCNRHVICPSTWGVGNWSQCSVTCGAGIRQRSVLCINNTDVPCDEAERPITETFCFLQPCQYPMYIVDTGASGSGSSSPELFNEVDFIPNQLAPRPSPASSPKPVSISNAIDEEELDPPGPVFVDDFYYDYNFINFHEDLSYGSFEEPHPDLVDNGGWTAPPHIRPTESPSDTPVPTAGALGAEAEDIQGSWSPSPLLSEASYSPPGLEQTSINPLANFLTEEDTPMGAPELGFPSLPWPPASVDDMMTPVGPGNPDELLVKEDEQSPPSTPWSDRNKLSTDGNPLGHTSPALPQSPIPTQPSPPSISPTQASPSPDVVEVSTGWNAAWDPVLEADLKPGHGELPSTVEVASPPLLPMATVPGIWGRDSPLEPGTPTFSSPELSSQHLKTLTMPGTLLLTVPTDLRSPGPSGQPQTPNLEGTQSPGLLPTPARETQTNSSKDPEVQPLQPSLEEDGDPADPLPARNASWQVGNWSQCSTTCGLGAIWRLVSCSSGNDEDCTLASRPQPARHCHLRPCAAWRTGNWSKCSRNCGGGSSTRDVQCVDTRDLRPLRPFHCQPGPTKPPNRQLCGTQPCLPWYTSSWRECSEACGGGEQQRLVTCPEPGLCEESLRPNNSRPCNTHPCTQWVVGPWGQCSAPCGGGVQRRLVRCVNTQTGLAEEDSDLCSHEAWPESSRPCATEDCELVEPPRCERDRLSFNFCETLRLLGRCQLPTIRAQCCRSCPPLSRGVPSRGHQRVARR
Assay: TMT10 TAILS N-terminomics, HUVEC experiment (process replicates, trypsin/AspN digest)
Type: cell-based, human
Details: HUVEC TAILS HC; log fold change of N-terminal peptide, Ad-mADAMTS7 EQ over Luc
Method in brief: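 Full-length mouse ADAMTS7 (WT or E373Q mutant, C-terminal 3xFLAG) or luciferase was transduced via adenovirus, 50 MOI, into HCA-SMC (SMC1, SMC2) or HUVEC. SMC1: pooled media, technical triplicates 400 ug; SMC2: process triplicates 300 ug; HUVEC: process triplicates 200 ug, bFGF2 10 ng/ml.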

## COL18A1_1505 (LQPPVVQLHDSNPYPR; listed as Homo sapiens)
  logFC.mEQ.over.Luc: −0.84

## LTBP2_79 (VAGLQPVER; listed as Homo sapiens)
  logFC.mEQ.over.Luc: −0.38

## LTBP2_250 (SAAGEGTLAR; listed as Homo sapiens)
  logFC.mEQ.over.Luc: 0.12

## LTBP2_502 (LVENSVETRPPPWLPASPGHSLW; listed as Homo sapiens)
  logFC.mEQ.over.Luc: −0.22

## LTBP3_208 (FLVPLGPGQISA; listed as Homo sapiens)
  logFC.mEQ.over.Luc: −0.60

## MAP4_815 (AVASTGPSSR; listed as Homo sapiens)
  logFC.mEQ.over.Luc: 0.36

## MAP4_816 (VASTGPSSR; listed as Homo sapiens)
  logFC.mEQ.over.Luc: 0.08

## NID1_360 (FHQQHPQVI; listed as Homo sapiens)
  logFC.mEQ.over.Luc: −0.30

## NID2_291 (HSSVPLGR; listed as Homo sapiens)
  logFC.mEQ.over.Luc: −0.10

## NUCB1_317 (FLASTQR; listed as Homo sapiens)
  logFC.mEQ.over.Luc: 0.06

## NUCB1_389 (LQQAVLHMEQR; listed as Homo sapiens)
  logFC.mEQ.over.Luc: −0.22

## SERBP1_56 (QAAAQTNSNAAGKQLR; listed as Homo sapiens)
  logFC.mEQ.over.Luc: −0.20

## SPOCK1_27 (LAGGAGPNHGNFL; listed as Homo sapiens)
  logFC.mEQ.over.Luc: −0.17

## SRGN_59 (LLPGESNKIPR; listed as Homo sapiens)
  logFC.mEQ.over.Luc: −0.13

## THBS2_290 (LSENLKR; listed as Homo sapiens)
  logFC.mEQ.over.Luc: 0.64
